Columns and labels:
[1] = biological target: soluble murine EPCR with a C-terminal myc-His tag (murine) (UniProt Q64695); assay: ELISA; plate binding assay: soluble murine EPCR (5 μg/ml) captured by immobilised anti-myc monoclonal antibody; murine protein C variants 0 to 1200 nM in TBS-1% BSA, 5mM CaCl2, 0.6mM MgCl2, 2 hours at 37°C with shaking; detected with sheep anti-murine protein C; one-site fit, apparent KD (KD(app)); n = 3
[2] = biological target: human APC(5A) (human)

Chain of UniProt Q64695 (Q64695 18-214): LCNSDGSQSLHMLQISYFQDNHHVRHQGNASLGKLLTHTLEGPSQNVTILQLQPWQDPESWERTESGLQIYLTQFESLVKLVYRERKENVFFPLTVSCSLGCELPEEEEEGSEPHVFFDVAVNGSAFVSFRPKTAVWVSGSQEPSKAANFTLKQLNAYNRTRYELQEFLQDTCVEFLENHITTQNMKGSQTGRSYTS

Molecule | Kd [1] [nM] | inactivation of 20nM human APC variant by 200nM PCI at 37°C, residual APC activity on S-2366 over 0–20 minutes; half-life [2] [min]
murine protein C(S360A) (natural protein) | 129 | –
recombinant murine wt protein C (natural protein) | 112 | –
plasma-derived murine protein C (natural protein) | 94.3 | –
human recombinant protein C inhibitor (PCI) (natural protein) EMKKRVEDLHVGATVAPSSRRDFTFDLYRALASAAPSQSIFFSPVSISMSLAMLSLGAGSSTKMQILEGLGLNLQKSSEKELHRGFQQLLQELNQPRDGFQLSLGNALFTDLVVDLQDTFVSAMKTLYLADTFPTNFRDSAGAMKQINDYVAKQTKGKIVDLLKNLDSNAVVIMVNYIFFKAKWETSFNHKGTQEQDFYVTSETVVRVPMMSREDQYHYLLDRNLSCRVVGVPYQGNATALFILPSEGKMQQVENGLSEKTLRKWLKMFKKRQLELYLPKFSIEGSYQLEKVLPSLGISNVFTSHADLSGISNHSNIQVSEMVHKAVVEVDESGTRAAAATGTIFTFRSARLNSQRLVFNRPFLMFIVDNNILFLGKVNRP | – | 4

Source: paper PMC4382112
